The source of these data is PMC8176726.

Data set [1] relates to His6-CssR (Corynebacterium glutamicum RES167). In words: EMSA. Particulars: apparent KD; EMSA: 10 mM Tris-HCl pH 7.4, 5 mM MgCl2, 50 mM KCl, 5% glycerol, 0.1% NP40, 1 ug poly(dI:dC), 0.5 mM EDTA, 20 ng DNA in 20 ul, room temperature 30 min. (A gel shift assay detects complexes by their altered migration in electrophoresis.)
The test system of data set [2] is T1, His6-CssR (Corynebacterium glutamicum RES167), ORF:46f2a94e.
T1 sequence: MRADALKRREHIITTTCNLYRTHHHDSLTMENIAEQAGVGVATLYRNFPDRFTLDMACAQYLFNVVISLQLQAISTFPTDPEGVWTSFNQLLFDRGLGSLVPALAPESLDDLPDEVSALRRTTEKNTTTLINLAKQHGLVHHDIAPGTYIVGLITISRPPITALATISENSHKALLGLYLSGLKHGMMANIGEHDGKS
In words: EMSA. The note with it: EMSA: 10 mM Tris-HCl pH 7.4, 5 mM MgCl2, 50 mM KCl, 5% glycerol, 0.1% NP40, 1 ug poly(dI:dC), 0.5 mM EDTA, 20 ng DNA in 20 ul, room temperature 30 min.

Data set [3] shares this test system. In words: DNase I footprinting. The note with it: EMSA: 10 mM Tris-HCl pH 7.4, 5 mM MgCl2, 50 mM KCl, 5% glycerol, 0.1% NP40, 1 ug poly(dI:dC), 0.5 mM EDTA, 20 ng DNA in 20 ul, room temperature 30 min.
Data set [4] has as its target His6-CssR (C. glutamicum stress-sensing regulator, NCgl1578) (Corynebacterium glutamicum RES167). As to the kind of experiment: SEC; Superdex 75 10/300 GL, 50 mM potassium phosphate pH 7.4, 0.15 M NaCl; calibrated with a low molecular weight gel filtration kit (Kav versus log molecular weight); native mass 52 kDa.

With 131-bp PcssR, the Kd in data set [1] amounted to 17 nM.

On to “AACACCGCGAATTATAGACTGAACTGGTACTTGGGAAGCTTTTTATAGTCATATGCGTTGAGATACGTGGACGACAAAGCACCAGTTAGTTGCCTTCCCAGTCCAGCCCACATCCGATTTCTAAATTAGGAGCACATC (double strand) [mtr promoter]”, for which, in data set [2], the binding entry is given as “no binding”.

In the case of “CGTAATTATTTCCGCGACAAGCTATTTGCAAGCTATGTGCAGGCTCATTGCACAAGTTCAGCGCGGAGACACGTCCTAAAAAATACTTATGAAATTATGTTCGACACCGAAATGTCACCTGAAACTTCAACCAAGCCGCCAGTGCACCTATTCCACAAACCAAAAAATCCGCCAACACGAATGCGGCGGATTTTTAAGATGTACAGG (double strand) [mshC promoter]”, the binding entry in data set [2] is “no binding”.

Regarding “CGTTTTAGTGCGTCTGCTCTCATGTTGTTGTCCTCTAGTTGACAGCGGGGGTGGTGGTGGTCCTAAAATAGCCTACGATAACTGATAGTGTTTCCTCCACTTACGGAAGAAGATACATGAATACCCCTCTTTTGAGAAGCTCTGGGCTCTCCATCCGCGACACACCCTTCGCCGATGTTGAGATAGCTCCAGACAGCGGACTCAC (double strand) [PcssR footprint fragment]”, the binding entry in data set [3] is reported as “binds”.

On to “GAAGTTTTTCAAAGTGTCTGACGTTGAAAACGGTGAGTTCACAACTAGGGTGAATGGTGCACGTGATGCTGCACTTTTACGTTTACTACTTTGAGGGAAAC (double strand) [trx promoter]”, for which, in data set [2], the binding entry is given as “no binding”.

Turning to “GATCACCGCATGTGAAACAAGCGGATACGCAATGAGCATCCCCCACGCCCACTGCACATTAAACACCCAATTCAACACCGCAAAACCCACCAAAAACAGCAGCGTCGCGATCACACAAGCAGCGTCAGATCTTTGCGGCATAGCGCCATC (double strand) [mrx1 promoter]”, the binding entry in data set [2] is given as “no binding”.

As to “GGTATTGGGCGCATGCCATGTCCAGTGTGAAGCGATCGGGGAAGTTTCGGTATAAAGTTGCAACACCCACTCCTGCCTGTTCTGCAATGTTTTCCATGGTGAGCGAATCGTGATGGTGTGTGCGGTAGAG (double strand) [131-bp cssR coding region control]”, the binding result in data set [2] is on record as “no binding”.

As for “GTTGTTGTCCTCTAGTTGACAGCGGGGGTGGTGGTGGTCCTAAAATAGCCTACGATAACTGATAGTGTTTCCTCCACTTACGGAAGAAGATACATGAATACCCCTCTTTTGAGAAGCTCTGGGCTCTCCAT (double strand) [131-bp PcssR]”, in data set [2], the Kd was determined as 17 nM and the binding result was “binds”.

By stoichiometry N is commonly meant the number of molecules, sites or subunits per partner or assembly. As for “His6-CssR (C. glutamicum stress-sensing regulator, NCgl1578) (natural protein)”, in data set [4], the stoichiometry N turned out to be 2.
